Data published in US20100069815A1.

Columns and labels:
[1] = target: CD2 on CD2 positive cells in human peripheral blood (human) (UniProt P06729); assay: specificity control, cells recovered after the column (not adsorbed), with biotin block; flow cytometry; mean ± SD of 3
[2] = target: CD2 on CD2 positive cells in human peripheral blood (human) (UniProt P06729); assay: specificity control, cells recovered after the column (not adsorbed), without biotin block; flow cytometry; mean ± SD of 3
[3] = target: CD8 on CD8 positive cells in human peripheral blood (human) (UniProt P01732); assay: specificity control, cells recovered after the column (not adsorbed); flow cytometry; mean ± SD of 3
Sequence of CD8 on CD8 positive cells in human peripheral blood (human) (P01732 22-235): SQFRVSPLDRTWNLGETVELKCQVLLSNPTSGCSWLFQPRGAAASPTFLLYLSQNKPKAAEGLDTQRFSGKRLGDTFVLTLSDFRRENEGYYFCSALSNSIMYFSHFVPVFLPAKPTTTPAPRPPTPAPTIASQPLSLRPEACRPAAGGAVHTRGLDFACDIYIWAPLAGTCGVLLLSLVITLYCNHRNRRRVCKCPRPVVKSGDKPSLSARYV

Sequence of CD2 on CD2 positive cells in human peripheral blood (human) (P06729 25-351): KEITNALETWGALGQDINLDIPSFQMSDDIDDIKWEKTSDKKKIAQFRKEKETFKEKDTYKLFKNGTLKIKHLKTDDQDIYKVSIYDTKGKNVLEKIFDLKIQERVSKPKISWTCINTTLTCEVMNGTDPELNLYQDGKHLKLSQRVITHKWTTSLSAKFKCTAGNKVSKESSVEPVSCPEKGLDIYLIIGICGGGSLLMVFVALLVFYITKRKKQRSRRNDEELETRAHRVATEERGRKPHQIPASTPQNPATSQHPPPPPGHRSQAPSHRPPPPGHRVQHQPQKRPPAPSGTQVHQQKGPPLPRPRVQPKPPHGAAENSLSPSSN

With 4G7 scFv-SA the CD2 positive cell recovery rate (%) [1] was 78.7% and the CD2 positive cell recovery rate (%) [2] was 76.4%.
With Leu3a scFv-Normal the CD8 positive cell recovery rate (%) [3] was 78.9%.
